Data taken from paper PMC6317306.
Positions count from the first letter of the chain named. Blank lines part the entries; values can stand above or below the binder they belong to.

Biological target: FLAG-Cep85-6D (UniProt Q6P2H3)
Experiment: co-IP

percent reduction of affinity against Nek2A-4A: 50%
B1: HA-Nek2A (enzyme)
chain: MPSRAEDYEVLYTIGTGSYGRCQKIRRKSDGKILVWKELDYGSMTEAEKQMLVSEVNLLRELKHPNIVRYYDRIIDRTNTTLYIVMEYCEGGDLASVITKGTKERQYLDEEFVLRVMTQLTLALKECHRRSDGGHTVLHRDLKPANVFLDGKQNVKLGDFGLARILNHDTSFAKTFVGTPYYMSPEQMNRMSYNEKSDIWSLGCLLYELCALMPPFTAFSQKELAGKIREGKFRRIPYRYSDELNEIITRMLNLKDYHRPSVEEILENPLIADLVADEQRRNLERRGRQLGEPEKSQDSSPVLSELKLKEIQLQERERALKAREERLEQKEQELCVRERLAEDKLARAENLLKNYSLLKERKFLSLASNPELLNLPSSVIKKKVHFSGESKENIMRSENSESQLTSKSKCKDLKKRLHAAQLRAQALSDIEKNYQLKSRQILGMR

percent reduction of affinity against Nek2A-4A: > 60%
B2: HA-Nek2A-4D (enzyme)
chain: B1 chain with S356D, S365D, S406D, S438D
